From publication doi:10.1101/2024.01.25.576086

Columns and labels:
[1] = molecular target: biotinylated pVHL-Elongin B-Elongin C complex (bio-VBC) (human) (UniProt P40337); assay: SPR
VHL-LgBiT (human) = VHL-LgBiT (human) (UniProt P40337)

KD with compound 4 [1] [µM] | HiBiT degradation assay of CDO1 in HEK293T cells with compound 8; absDC50 (VHL-LgBiT (human)) [nM] | Substance
> 40 | – | CDO1(Q99N) (from UniProt Q16878 1-200) (enzyme)
– | 8 | SmBiT-CDO1 (from UniProt Q16878 1-200) (enzyme)
